This data set deals with the molecule itself. The experiment in a line: ESI-MS; peptide alone (control) at 100 µM in 15 mM ammonium acetate pH 6.8, 25 °C, direct injection, Q-ToF; the dimer is also seen in the samples with the metal complexes 1-3.

Here are results for one protein from paper PMC6958441, “Role of the Metal Center in the Modulation of the Aggregation Process of Amyloid Model Systems by Square Planar Complexes Bearing 2-(2′-pyridyl)benzimidazole Ligands” (Pharmaceuticals, 2019).

B1: NPM1_(264–277), fragment corresponding to the 2nd helix (residues 264–277) of the C-terminal domain of nucleophosmin 1 (peptide)
peptide: Ac-VEAKFINYVKNCFR-NH2
notes: The dimer seen by ESI-MS is held by a disulfide bridge through the single cysteine of the peptide; A species of 1874 Da (monomer adduct on the Cys) and oxidised forms were also in the sample; source: synthetic peptide, treated with HFIP, purified through RP-HPLC
As to B1, the “stoichiometry N” value came to 2.

A word on the stoichiometry N: it is a count of units in the complex or per binding partner.
